This is an account of results in paper PMC3343102, “Dynamics of Brassinosteroid Response Modulated by Negative Regulator LIC in Rice”.

The target in the series is T1, MBP-OsBZR1 (Oryza sativa, UniProt Q7XI96 1-298).
T1 sequence: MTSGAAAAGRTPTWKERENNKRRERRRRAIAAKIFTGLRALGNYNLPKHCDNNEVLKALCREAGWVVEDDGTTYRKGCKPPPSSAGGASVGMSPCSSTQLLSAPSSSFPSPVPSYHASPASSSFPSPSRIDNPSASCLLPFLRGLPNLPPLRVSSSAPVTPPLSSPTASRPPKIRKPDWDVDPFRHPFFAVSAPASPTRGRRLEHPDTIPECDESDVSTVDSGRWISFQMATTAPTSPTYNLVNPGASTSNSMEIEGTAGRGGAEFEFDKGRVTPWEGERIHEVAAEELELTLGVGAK
Description: EMSA; EMSA, 20 uL: 2 ug protein; 2 uL 10x buffer (100 mM Tris, 500 mM KCl, 10 mM DTT, pH 7.5), 1 uL each of 50% glycerol, 1% NP-40, 1 M KCl, 100 mM MgCl2, 200 mM EDTA, 1 ug/uL poly(dI-dC); i.e. about 10 mM Tris, 100 mM KCl, 5 mM MgCl2, 10 mM EDTA; 25 C, 20 min; 10% native PAGE. To be noted: protein: recombinant; tags: MBP (N-terminal fusion, pETMALc-H); chain copies: 2; label: biotin 3' end; blunt. For orientation: In EMSA bound probe runs differently from free probe, usually more slowly.

B1: LIC promoter P1 (dsDNA)
DNA 1: CGACGTCGTGCGGCCGCG
DNA 2: CGCGGCCGCACGACGTCG
With B1, the binding result is reported as “binds”.

B2: LIC promoter P2 (dsDNA)
DNA 1: CGGGCGCGTGTGTGGCGG
DNA 2: CCGCCACACACGCGCCCG
For the molecule B2, the binding result is given as “no binding”.

B3: MP1 (P1 with CGTGCG to CGAAAA) (dsDNA)
DNA 1: CGACGTCGAAAAGCCGCG
DNA 2: CGCGGCTTTTCGACGTCG
Regarding B3, the binding result is listed as “no binding”.
